Experimental data from PMC11543891, “Expression, purification, and characterization of diacylated Lipo-YcjN from Escherichia coli” (The Journal of Biological Chemistry, 2024).

Molecular target: the molecule itself
Assay: SEC; Hiload 16/600 Superdex 200 pg, 25 mM Tris-HCl pH 7.5, 100 mM NaCl, run without LMNG and with 0.01% LMNG; elution volumes compared with gel filtration standards

B1: Lipo-YcjN (diacylated lipoprotein form of E. coli YcjN, from the construct SP-YcjN-10H) (natural protein, E. coli K-12, UniProt P76042 21-430, looked up)
chain: CKEENKTNVSIEFMHSSVEQERQAVISKLIARFEKENPGITVKQVPVEEDAYNTKVITLSRSGSLPEVIETSHDYAKVMDKEQLIDRKAVATVISNVGEGAFYDGVLRIVRTEDGSAWTGVPVSAWIGGIWYRKDVLAKAGLEEPKNWQQLLDVAQKLNDPANKKYGIALPTAESVLTEQSFSQFALSNQANVFNAEGKITLDTPEMMQALTYYRDLTANTMPGSNDIMEVKDAFMNGTAPMAIYSTYILPAVIKEGDPKNVGFVVPTEKNSAVYGMLTSLTITAGQKTEETEAAEKFVTFMEQADNIADWVMMSPGAALPVNKAVVTTATWKDNDVIKALGELPNQLIGELPNIQVFGAVGDKNFTRMGDVTGSGVVSSMVHNVTVGKADLSTTLQASQKKLDELIEQH
modifications: diacylated at cysteine 21 (S-diacylglyceryl-cysteine, the new N terminus), acyl chain compositions [16:0, 16:0] and [16:0, 18:1]
notes: YcjN, E. coli K-12, expressed with its native N-terminal signal peptide; by intact mass the purified protein is the processed lipoprotein that begins at the diacylated cysteine 21; Expressed as the full-length precursor (SP-YcjN-10H); LC-MS masses of 46,699 and 46,726 Da fit the protein cut before C21 and diacylated; No tag removal is described; also called lipidated YcjN
  binding result: binds
